Measurements: publication PMC6336718

Experiments:
[1] = biological target: Bacillus anthracis zinc uptake regulator protein (BaZur) (Bacillus anthracis (Sterne 34F2)); assay: native gel or EMSA
[2] = biological target: Bacillus anthracis zinc uptake regulator protein (BaZur) (Bacillus anthracis (Sterne 34F2)); assay: SEC; […] (50 mM Tris HCl pH 8.0, 150 mM NaCl, 5% glycerol), […]

Bacillus anthracis zinc uptake regulator protein (BaZur) (natural protein)
stoichiometry N [1]: 2 | stoichiometry N [2]: 2
